# Measurements reported in patent publication US9371519B2, “Complex type sugar chain hydrolase” (National Institute of Advanced Industrial Science and …, priority 2011, dated 2016).
# B1: Endo-Cp: endo-β-N-acetylglucosaminidase from Candida parapolymorpha DL-1 ATCC26012, amino acid sequence SEQ ID NO. 5, 745 amino acids (protein, listed as Candida parapolymorpha)
# chain: MPRNTAKHSSLPQTNLPLSSLESSFFDSLDELANWERRIHEKSFELDELNKPTEKLAHYTRARQQSTSEDVKLLVCHDLKGGYQVNEDEDPLGYFPHPDGQHYFLQYPQLVDKFVYFSHHRVSIPPVSWINVCHRNAIKCLGTVIFEGNTYRDFEEADKLLTKQDGEYVFVRCLVALVEYFQFDGYLFNIETRFSNTRIASLLEPFLEQLRAELHVRNPSTELIWYDSYIYPENRVLYKNGVTEANYNFFSCCDSFFTNYWWNVKHLQDNIKNVGVLGSRLKVYAGYDVWGRGTMIGKGGYDSALACQMIKKYRSNVALFAPAWTYEYLARKDFTQNDTRFWIGLFDGESSMATTFKPYSSPLYKINDSNFVFYTNFGSGEGCAFYECGEKVYRDNWVNGSLQMEIPYAIHTRNKNGIQWTLSKEDSFHGGSCVEIKYNEVVDDKGYQVFNNQTINSFSLFSFVQDCSFPTVNVKLTYKLNHKTKSFFKLKIGYYIERRYRTVQKVRSGCLVVPLLSTNDQWFTIEEPFHVSLQNSHEFIVLDSATIFYEETEDPFMRAHVVEDQSTSSVIDNEEYEKLMNSEIYFDDEDEDWILVPSDISMESTDNGGRENHTWKVISNQIRKKHPKSHPSTSPVLKLGELAIINANDYPSDSFFKLMPVNSIDVRRWEGKILLIWKTNQDSVLYHLIFVDDVFQGISLVSKFVFEDQAVDEKSFKTKSGGSTKVRIDTVNRLGILVKGTDM
# B2: Endo-Zr: endo-β-N-acetylglucosaminidase from Zygosaccharomyces rouxii ATCC2623, amino acid sequence SEQ ID NO. 13, 639 amino acids (protein, listed as Zygosaccharomyces rouxii)
# chain: MKRINQVPGKPEITSLYFDDLNSLQRWFDKGFMDSRDLSNVPKERYSNYVKFEKDSIITIPNLSARKTEIIVCHDFKGGYQSGHDLYPNGQYGTESCKPYSLRYPEIVDKFVYFSHHCVTIPPSPWTNYLHRHSIPVLGTLILEHYPHNGELFKKNAKGEFLYVKYLVELCRKFHFEGWLINFETVFGNNSKQVIPFLRELTARVECEIYGGSVIWYDAFTTFSNKPSHQNEVNLFNYDAYENSSQFMTNYMWDSHNVGNSLRNVGALGMHSHVALGVDVWGRNMQVCRGGFESNIAIYYAKRFGTNAVIFAPGWTYENFGEDQFYEKDDIFWGNIKSTLQLDSYSDSQLSSWFVSESKKTRYFTTFFSTGSGNFFNLNGRRISNDNWVQLGLSTPFPVNSHSYLSFKDSFVGGSCLALPLSPMENGKLHLFRFEQFIKDQQKTSDSEIRVKLSYKSLGALPPVKLVIKCFVIRRGKRSKTILKVDDVSLVLPLSHSACQTAQGSTKWAVVEQIVPLPSLESRFLEEYYVEDAHLEWTMDNNHDEWLMVPERTEDLDCKLLIGSLCLEIGPHEDNNKRQIVRNGPQLSWQDNESSFMWLKLQDGKLDSVLFTPTTKVNGKQPTILECGRNGTLKFVVKK
# B3: Endo-Om: endo-β-N-acetylglucosaminidase from methylotrophic yeast Ogataea minuta IFO10746, amino acid sequence SEQ ID NO. 1, 772 amino acids (protein, listed as Ogataea minuta)
# chain: MAQSQLLGGAVRPVFFDKLEELRRWHTQSANLSRESELDSLNVATEPFSSYERAQTGSGSRSSEPVPGDKEDPPIKLMVCHDFKGGYQDYEDAQPLGYFPHPTGSRYFLQYPQLIDQFVYFSHHRVTVPPVNWINFCHRNGIKCFGTVIFEGNASKDFEELDRLVSRDEKGDFVFVDALIKLAAHYGFDGYLLNIETTFSNTKIAADLEPFAEQLKSGLHCLDSKNELIWYDSYVFPANKVSYTNGVTESNYNFFSLSDAFFSNYWWNIKNLQENIKNVGVLGVQKKIYVGYDVWGRGTLVGKGGFDSSLACKMIAKFKSNVALFAPAWTYESLGPKDFNQNDARFWIGLFENESSISSTVPPHSSAVYKINESSFIFYTNFSSGEGNRFFSKGSEVYRKNWVNGSLQFDLPIDLHRKDKNGLQWALDKSDAFHGGACLEIKYSEIKDENGYQIFNNQMVSDFTLFNFTKECHFPTVNVKVTYKLNHKTKSTFKIKIKYIIERRFRSVQTVRTGYLTIPLLSTSGKWFTVEESFQINLQTSHEYIVLESAHVTYDEDRSADSFFRSYIVEDSAITSVIDNEEYEKLINSEIYNDDEDEDWILVPSDVSISSSESQSNDSKTQYLGRKLFGNKSTPKTRTLEGTAPLLRIGEFAIISANNYPSSNFLAVTSVKSIESSRLEGDSLVLLNWQVGEGHQKGVCYYIIYVNGAVVGLSVAPKFIYQDTELASENSASARSNYKKSGLGSSSDRKSKVRVDSVDKLGNVFTGSEVWV
# B4: Endo-Pa: endo-β-N-acetylglucosaminidase from Pichia anomala ATCC36904, amino acid sequence SEQ ID NO. 9, 656 amino acids (protein, listed as Pichia anomala)
# chain: MQHDHAAIKFEEDSISSQRFSSLDEVEKWYNTKNRSPLDDLRIPRESLSHYNRFRDNNDEIKVLVCHDFKGNYQEGEDENPLGYFPHSSGQHYFIQFPSLVDLFIFFSHYKIAVPPVSWINSLHRQGIPVLGTLIFEGTDVSESDKLLEKNENGDFKYLEILCELVRHYGFDGWLVNMESHFSSVAKAQDLLLFDEALRSTLHLKVPGSKLIWYDSLITQKNRVFYQNAVNEWNYDHFSTSDLFFTNYWWNEEDLKRNILNIGLQGVKQKLFVGVDIWGRGSRIGNGGFESGLAINYLKRYSTNVALFAPAWTYENFEEDQFLIKDRKFWIGDQTSDETGGSVATYVSHYTTPVYVKDQNVKFYTNFSVGEGTKYRVFAHTVFKNNWVNGNLQLPTPIIDNEKRIDIYYKESFNGGSSLKVTQRNSILNDGKSNILQLFSFKNDIHSNNLNVSVSFKYLSEIPLNSTFQLEIKFYIERRYRSVTRVRDGTFKLPLAFSNKNWKYIETSFALPRLQIREHFVLEGLQIRWVDNVDELSSSIGTSGDFTESWIIVPQNSDPNAVYELLIGDLLVEGIKTANGNIDAVTKLSRKITLDSRSILATWKDDTEVLYWIIYVNAKFLGIAHKSLWRVQRGDKLRVDVFTRSGKLVKGEDIFI
# Experiment: Study of optimal reaction conditions (pH and temperature)
# Type: biochemical
# Conditions: 10 μM NGA2-Asn-Fmoc; buffers pH 3.5-9.0
# Protocol: Study of the optimal reaction pH for Endo-Om was carried out as follows. A reaction solution containing any of various buffers having a final concentration of 100 mM, 0.5 M of NaCl, 10 μM of NGA2-Asn-Fmoc, and an Endo-Om purified enzyme solution (total volume: 10 μl) was incubated at 50° C. for 1 hour, and heated at 95° C. for 5 minutes, thereby stopping the enzyme reaction. The buffers used herein were a sodium citrate buffer (pH 3.5-5.5), a sodium acetate buffer (pH 4.5-6.0), a sodium phosphate buffer (pH 6.0-7.5), a MOPS-NaOH buffer (pH 6.5-8.0), and a Tris-HCl buffer (pH 8.0-9.0). The reaction solution was subjected to HPLC by the method described in Example 4, and the enzymatic activity was calculated. The optimal reaction temperature was studied by changing the reaction temperature in the activity measurement method described in Example 4 in the range of 10° C. to 60° C.
# (§1) Study of the optimal reaction pH for Endo-Cp was carried out as follows. A reaction solution containing any of various buffers having a final concentration of 100 mM, 0.5 M of NaCl, 10 μM of NGA2-Asn-Fmoc, and an Endo-Cp partially purified enzyme solution (total volume: 10 μl) was incubated at 30° C. for 3 hours, and heated at 95° C. for 5 minutes, thereby stopping the enzyme reaction. The buffers used herein were a sodium citrate buffer (pH 3.5-5.5), a sodium acetate buffer (pH 4.5-6.0), a sodium phosphate buffer (pH 6.0-7.5), a MOPS-NaOH buffer (pH 6.5-8.0), and a Tris-HCl buffer (pH 8.0-9.0). The reaction solution was subjected to HPLC by the method described in Example 8, and the enzymatic activity was calculated. The optimal reaction temperature was studied by changing the reaction temperature in the activity measurement method described in Example 8 in the range of 10° C. to 70° C.
# as §1, with “Endo-Pa” for “Endo-Cp”, “12,” for “8,”, “The optimal reaction temperature was studied by changing the reaction temperature in the activity measurement method described in Example 8 in the range of 10° C. to 70° C.” left out
# Study of the optimal reaction pH for Endo-Zr was carried out as follows. […] The reaction solution was subjected to HPLC by the method described in Example 16, and the enzymatic activity was calculated. […]
row,Molecule,Optimal pH (optimal reaction pH)
1,B1,about 5.5
2,B2,4.5-5.0
3,B3,about 5.5
4,B4,5.0-5.5
